The record followed here is patent US20220204643A1 (published 2022).

The target of experiment [1] is T1, FA complementation group G (human, UniProt O15287 1-622).
T1 construct: on protein array; also called FANCG
T1 sequence: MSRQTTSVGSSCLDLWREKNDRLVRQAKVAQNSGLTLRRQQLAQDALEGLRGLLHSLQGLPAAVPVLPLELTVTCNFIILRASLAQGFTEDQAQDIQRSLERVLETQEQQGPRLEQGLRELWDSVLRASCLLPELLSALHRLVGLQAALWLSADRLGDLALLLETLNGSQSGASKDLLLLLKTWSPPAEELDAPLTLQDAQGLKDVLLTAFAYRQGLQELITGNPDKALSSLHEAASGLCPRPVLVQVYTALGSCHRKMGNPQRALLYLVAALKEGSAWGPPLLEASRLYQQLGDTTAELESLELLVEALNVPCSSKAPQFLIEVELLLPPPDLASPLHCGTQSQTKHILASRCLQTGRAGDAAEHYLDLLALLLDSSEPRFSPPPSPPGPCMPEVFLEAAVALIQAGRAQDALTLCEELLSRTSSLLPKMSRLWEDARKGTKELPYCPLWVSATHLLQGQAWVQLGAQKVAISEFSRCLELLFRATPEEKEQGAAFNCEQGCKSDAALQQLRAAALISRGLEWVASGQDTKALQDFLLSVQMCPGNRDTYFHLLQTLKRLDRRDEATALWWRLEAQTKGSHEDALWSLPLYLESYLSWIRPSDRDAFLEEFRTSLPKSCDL
The experiment in a line: protein array.

The target in experiment [2] is T2, growth factor receptor bound protein 2, transcript variant 1 (human, UniProt P62993 1-217).
T2 construct: HuProt array protein, full-length recombinant from yeast; also called GRB2

A further experiment has as its target T3, LIM homeobox 5 (human, UniProt Q9H2C1 1-402).
T3 construct: HuProt array protein, full-length recombinant from yeast; also called LHX5
T3 sequence: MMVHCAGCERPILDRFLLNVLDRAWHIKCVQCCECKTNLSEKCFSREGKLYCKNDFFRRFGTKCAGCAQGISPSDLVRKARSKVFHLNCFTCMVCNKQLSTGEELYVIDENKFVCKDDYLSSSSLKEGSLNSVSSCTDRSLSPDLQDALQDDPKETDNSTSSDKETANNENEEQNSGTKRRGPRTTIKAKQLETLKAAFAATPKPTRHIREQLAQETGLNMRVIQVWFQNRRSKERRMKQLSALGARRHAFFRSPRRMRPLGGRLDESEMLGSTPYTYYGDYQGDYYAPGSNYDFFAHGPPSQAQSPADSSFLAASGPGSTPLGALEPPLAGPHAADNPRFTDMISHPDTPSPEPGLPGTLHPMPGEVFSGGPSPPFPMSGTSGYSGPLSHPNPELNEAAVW

Another experiment has as its target T4, extended synaptotagmin 2 (human, UniProt A0FGR8 564-921).
T4 construct: HuProt array protein; labelled _frag; also called ESYT2_frag
T4 sequence: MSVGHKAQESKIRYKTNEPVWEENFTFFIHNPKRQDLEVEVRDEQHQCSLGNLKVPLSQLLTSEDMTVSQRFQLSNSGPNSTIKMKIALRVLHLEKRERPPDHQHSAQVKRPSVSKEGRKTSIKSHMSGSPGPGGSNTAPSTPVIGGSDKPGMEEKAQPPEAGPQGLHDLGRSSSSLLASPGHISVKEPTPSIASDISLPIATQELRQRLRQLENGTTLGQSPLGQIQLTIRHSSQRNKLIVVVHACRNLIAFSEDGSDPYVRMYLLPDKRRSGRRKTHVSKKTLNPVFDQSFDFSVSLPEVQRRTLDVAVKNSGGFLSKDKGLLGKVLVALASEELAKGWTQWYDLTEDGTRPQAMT

For experiment [3], the target named is T5, KH RNA binding domain containing, signal transduction associated 2, transcript variant 2 (human, UniProt Q5VWX1 1-349).
T5 construct: HuProt array protein, full-length recombinant from yeast; also called KHDRBS2
T5 sequence: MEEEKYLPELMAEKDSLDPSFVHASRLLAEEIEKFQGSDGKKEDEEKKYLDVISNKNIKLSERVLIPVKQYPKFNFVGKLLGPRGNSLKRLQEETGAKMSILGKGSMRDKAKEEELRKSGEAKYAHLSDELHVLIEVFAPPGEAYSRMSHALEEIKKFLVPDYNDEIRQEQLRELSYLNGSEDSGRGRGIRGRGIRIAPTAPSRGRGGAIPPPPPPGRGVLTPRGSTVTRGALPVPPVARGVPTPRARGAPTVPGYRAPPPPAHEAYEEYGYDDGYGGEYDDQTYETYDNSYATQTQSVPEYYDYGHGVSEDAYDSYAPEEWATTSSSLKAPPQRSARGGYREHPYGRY

Experiment [4] has as its target T6, leucine rich repeat containing 28, transcript variant 1 (human, UniProt Q86X40 1-367).
T6 construct: HuProt array protein, full-length recombinant from yeast; also called LRRC28

For experiment [5], the target named is T7, homeobox and leucine zipper encoding (human, UniProt Q8IX15 25-550).
T7 construct: HuProt array protein, full-length recombinant from yeast; also called HOMEZ
T7 sequence: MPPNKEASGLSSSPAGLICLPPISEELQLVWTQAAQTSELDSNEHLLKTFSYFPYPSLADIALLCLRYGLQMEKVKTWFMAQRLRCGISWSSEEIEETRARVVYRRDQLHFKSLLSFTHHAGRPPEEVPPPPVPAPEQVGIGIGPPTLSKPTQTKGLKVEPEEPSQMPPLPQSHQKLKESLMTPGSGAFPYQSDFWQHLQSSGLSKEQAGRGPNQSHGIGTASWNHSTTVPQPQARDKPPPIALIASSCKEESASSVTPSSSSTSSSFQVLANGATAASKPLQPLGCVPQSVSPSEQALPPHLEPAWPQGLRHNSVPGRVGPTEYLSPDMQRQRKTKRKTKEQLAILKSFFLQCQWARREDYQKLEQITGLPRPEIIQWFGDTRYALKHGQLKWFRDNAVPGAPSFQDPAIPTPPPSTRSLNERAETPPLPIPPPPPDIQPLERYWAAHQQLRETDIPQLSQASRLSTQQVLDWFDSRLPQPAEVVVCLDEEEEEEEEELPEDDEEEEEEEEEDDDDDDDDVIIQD

Experiment [6] concerns the target T8, BAR/IMD domain containing adaptor protein 2, transcript variant 3 (human, UniProt Q9UQB8 1-511).
T8 construct: HuProt array protein, full-length recombinant from yeast; also called BAIAP2
T8 sequence: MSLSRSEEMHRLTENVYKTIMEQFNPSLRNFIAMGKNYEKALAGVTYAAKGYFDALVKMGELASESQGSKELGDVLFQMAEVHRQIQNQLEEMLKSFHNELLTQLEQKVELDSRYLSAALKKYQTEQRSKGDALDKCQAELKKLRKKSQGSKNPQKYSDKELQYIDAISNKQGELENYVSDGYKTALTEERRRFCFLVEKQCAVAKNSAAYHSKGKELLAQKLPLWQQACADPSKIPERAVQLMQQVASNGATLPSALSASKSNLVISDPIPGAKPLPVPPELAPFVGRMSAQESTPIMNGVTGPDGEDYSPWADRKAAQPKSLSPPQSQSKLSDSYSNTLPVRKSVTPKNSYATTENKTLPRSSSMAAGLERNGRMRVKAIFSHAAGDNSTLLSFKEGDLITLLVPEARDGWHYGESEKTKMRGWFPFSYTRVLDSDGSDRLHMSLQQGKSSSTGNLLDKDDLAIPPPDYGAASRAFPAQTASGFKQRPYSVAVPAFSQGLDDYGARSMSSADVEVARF

Experiment [7] concerns the target T9, sorting nexin 33, transcript variant 1 (human, UniProt Q8WV41 1-574).
T9 construct: HuProt array protein, full-length recombinant from yeast; also called SNX33
T9 sequence: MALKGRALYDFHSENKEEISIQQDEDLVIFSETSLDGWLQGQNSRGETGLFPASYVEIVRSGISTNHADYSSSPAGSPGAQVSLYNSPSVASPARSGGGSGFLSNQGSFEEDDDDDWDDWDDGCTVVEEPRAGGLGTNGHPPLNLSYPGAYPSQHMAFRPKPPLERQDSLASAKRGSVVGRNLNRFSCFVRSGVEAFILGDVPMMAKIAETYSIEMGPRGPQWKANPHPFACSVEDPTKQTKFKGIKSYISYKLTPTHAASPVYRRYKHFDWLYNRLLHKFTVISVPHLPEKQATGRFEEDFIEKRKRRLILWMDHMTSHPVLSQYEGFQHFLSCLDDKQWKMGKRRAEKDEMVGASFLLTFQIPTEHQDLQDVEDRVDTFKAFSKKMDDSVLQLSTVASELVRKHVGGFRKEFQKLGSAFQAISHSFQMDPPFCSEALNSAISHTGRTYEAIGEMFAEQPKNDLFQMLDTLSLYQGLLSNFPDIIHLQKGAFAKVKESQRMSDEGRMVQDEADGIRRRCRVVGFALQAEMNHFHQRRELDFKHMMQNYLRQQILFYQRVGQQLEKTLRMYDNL

T6 sequence (Q86X40 whole entry, change not shown): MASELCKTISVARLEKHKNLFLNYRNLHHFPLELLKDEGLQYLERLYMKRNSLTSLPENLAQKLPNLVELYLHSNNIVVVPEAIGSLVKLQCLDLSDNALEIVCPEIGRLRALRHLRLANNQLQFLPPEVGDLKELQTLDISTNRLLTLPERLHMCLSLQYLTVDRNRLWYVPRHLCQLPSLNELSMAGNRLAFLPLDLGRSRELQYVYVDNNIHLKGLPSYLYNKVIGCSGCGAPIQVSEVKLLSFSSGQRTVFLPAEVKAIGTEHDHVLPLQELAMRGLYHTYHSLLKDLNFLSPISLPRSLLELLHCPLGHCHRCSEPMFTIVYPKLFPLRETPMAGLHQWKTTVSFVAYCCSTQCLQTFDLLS

B1: TBRE1024 (antibody, V domains shown)
VH: PVQLQESGPGLVKPSETLSLTCTVSGGSISSDNYYWSWLRQHPGKGLEWIGYIYFSVTTYYNPSLKSRVTISLDTSKNQFSLKLSSVTAADTAVYYCASGYVSFDLWGQGTLVTVSS
VL: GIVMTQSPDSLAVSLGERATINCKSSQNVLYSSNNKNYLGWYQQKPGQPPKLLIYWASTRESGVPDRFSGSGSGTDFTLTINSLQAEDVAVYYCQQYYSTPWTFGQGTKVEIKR
notes: VH/VL only
On to B1, for which, in experiment [1], the binding result is “binds”.

B2: TCOL1009 (antibody, V domains shown)
VH: PVQLVQSGAEVKKPGASVKVSCKASGDTFPNYVISWVRQAPGQGLEWVGCINTNNGKTNYVQKLQGRVILTTDTSTNTANMELRSLRFDDTAVYYCARERGQVRSYGMDVWGQGTAVTVSS
VL: PYELTQPPSVSVSPGQTANITCSGDKLGDICVCWYQQKPGQSPVLVIYQHNKRPSGIPERFSGSNSGNTATLTISATQATDEAIYYCQSWDSSSVLFGGGTKLTVLG
notes: detected with anti-human IgG Fc
With B2, the binding result (in experiment [2]; in the experiment with LIM homeobox 5) was “binds” each time.

B3: TCOL1004 (antibody, V domains shown)
VH: QVQLQESGPGLVKPSQTLSLTCIVSGGSISGDKNFWSWVRQHPEKGLEWLGYISYNGNTYYNPSLISRIIISLDTPKNLFSLRLSSVTVADTAIYYCAREVDIRGDSDAFDIWGRGTVVTVSS
VL: EIVMTQSPATLSVSPGERATLSCRASQSVSTNLAWYQQRPGQAPRLFIFGASTRATGIPARFSGSGSGTEFTLTISSPQPEDSAVYYCQQYTTRPLTFGGGTKVEIKR
notes: as for B2
As to B3, the binding result in the experiment with extended synaptotagmin 2 is “binds”.

B4: TCHO1001 (antibody, V domains shown)
VH: PVHLVQSGAEVKKPGSSVKVSCKLSGGIFSYFAIIWVRQAPGQGLEWMGTIIPIFGTSNYAEKFQDRVAIVADEATSTVYMEVNSLRSEDTAIYFCARDSEVEKSDGYMASTAEYFQLWGQGTLVTVSS
VL: not shown
notes: detected with anti-human IgG Fc; also called TCH01001
In the case of B4, the binding result in experiment [3] was “binds”.

B5: TESO1003 (antibody, V domains shown)
VH: QVQLVESGGGVVQPGRSLRLSCAASGFTFSNYDMHWVRQAPGKGLEWVTVVSYDGTNKYYAESVQGRFTISRDNSKNTLYLQMNSLRTEDTAVYYCAKEGGWGNTVTTSYYYYGMDVWGQGTTVTVSS
VL: QIVLTQSPATLSLSPGERATLSCRASQSVSNYLAWYQQKPGQAPRLLIYDASNRATGIPARFSGSGSGTDFTLTISSLEPEDFAVYYCQQRSNWPPYTFGQGTKLDIKR
notes: as for B2
For the molecule B5, the binding result in experiment [4] is given as “binds”.

B6: TCOL1006 (antibody, V domains shown)
VH: EVQLVESGGGLVQPGGSLRLSCAASGFPPRSFAMSWVRQAPGKGLEWVSSISGLGNSIYYAESVKGRFITSRDNSKSTVFLLMNSLRAEDTAVYYCAKSAFGGVPDGFDIWGQGTMVTVSS
VL: QSVVTQPPSASGPPGQTVTISCSGGRSNVASHAVHWYQHLPGTAPKLLIYNDHQRPSGVPDRFSGSKSGPSASLAISGLRSEDEADYYCATWDDSLGGRVVFGGGTKLTVLG
notes: as for B2
Take B6: the binding result in experiment [5] and in experiment [6] was “binds” in each case.

B7: TCER1006 (antibody, V domains shown)
VH: EVQLVQSGAEVKKPGESLKISCKGSGYSFTSFWIGWVRQMPGKGLEWMGIIFPADSDTRYSPSFQGQVIISVDKSISTAYLQWSSLKASDTAMYYCARRGVSGGSAWTYYNFFDPWGQGTLVTVAS
VL: PSVLTQPPSVSAAPGQKVTISCSGSSSNIDNNYVSWYQQLPGTAPKLLIYENNKRASGIPDRFSGSKSGTSATLGITGLQTGDEADYYCGTWDSSLSPGGVFGGGTKLTVLG
notes: as for B2
Turning to B7, in experiment [7], the binding result is given as “binds”.
